The text below walks through data of PMC6611371 (Research and Practice in Thrombosis and Haemostasis, 2019).

Assay in all cases: SPR
A general note: SPR reads the build-up and loss of mass on a sensor chip optically.

For test [1], the target named is FVIIaDV (Homo sapiens, UniProt P08709, point mutant).
In test [2] the target is FVIIaDQ (Homo sapiens, UniProt P08709, point mutant).
The target of test [3] is FVIIaVQ (Homo sapiens, UniProt P08709, point mutant).

B1: mAb4F5 (antibody, V domains shown)
VH: EVKLVESGGGLVQPGGSRKLSCAASGFTFSDYGMAWVRQAPGKGPEWIAFISNLSRIYYADTVTGRFTISRENDKNTLFLEMSSLRSEDSAIYYCTRDDGYYRVDYWGQGATLTVSS
VL: DIVMTQSHKFLSTSVGNRVSITCKASQDVGIGLVSWYQQKPGQSPKLLIHWASTRHTGVPDRFTGSGSGTDFTLTINNVQSEDLATYFCQQFSNYPLTFGSGTRLEIK
For the molecule B1, the Kd in test [1] came out at 1.1 nM; in test [2] it was 1.9 nM; in test [3], 130 nM. Also, the dissociation rate constant (koff) in test [1] came to 0.00016 s⁻¹; in test [2], 0.00024 s⁻¹; in test [3], 0.0035 s⁻¹.

A word on the Kd: it is the concentration at which binding is half-saturated. Read a low Kd as tighter binding. One may read the koff as the first-order rate constant of dissociation.
